System: T1, N[C@H](C(=O)O)c1cc(O)cc(O)c1
T1 construct: full-length final NRPS module C-A-PCP-X-TE, MBP fusion (pET-MBP-1c), Ni-NTA and SEC, E. coli, co-expressed with Tcp17; holo form (PCP loaded with phosphopantetheine by Sfp R4-4); with MbtH-like protein Tcp17
Assay: coupled PPi-release A-domain assay (PPi-PFK/aldolase/TPI/GDH, NADH)
Assay type: biochemical, Actinoplanes teichomyceticus
Settings: holo form, 0.5 mM ATP, 1 mM MgCl2, pH 7.4, 0.1 mM EDTA, enzyme 1 μM

Sequence of Tcp12 (Actinoplanes teichomyceticus) (chain, as listed by the source): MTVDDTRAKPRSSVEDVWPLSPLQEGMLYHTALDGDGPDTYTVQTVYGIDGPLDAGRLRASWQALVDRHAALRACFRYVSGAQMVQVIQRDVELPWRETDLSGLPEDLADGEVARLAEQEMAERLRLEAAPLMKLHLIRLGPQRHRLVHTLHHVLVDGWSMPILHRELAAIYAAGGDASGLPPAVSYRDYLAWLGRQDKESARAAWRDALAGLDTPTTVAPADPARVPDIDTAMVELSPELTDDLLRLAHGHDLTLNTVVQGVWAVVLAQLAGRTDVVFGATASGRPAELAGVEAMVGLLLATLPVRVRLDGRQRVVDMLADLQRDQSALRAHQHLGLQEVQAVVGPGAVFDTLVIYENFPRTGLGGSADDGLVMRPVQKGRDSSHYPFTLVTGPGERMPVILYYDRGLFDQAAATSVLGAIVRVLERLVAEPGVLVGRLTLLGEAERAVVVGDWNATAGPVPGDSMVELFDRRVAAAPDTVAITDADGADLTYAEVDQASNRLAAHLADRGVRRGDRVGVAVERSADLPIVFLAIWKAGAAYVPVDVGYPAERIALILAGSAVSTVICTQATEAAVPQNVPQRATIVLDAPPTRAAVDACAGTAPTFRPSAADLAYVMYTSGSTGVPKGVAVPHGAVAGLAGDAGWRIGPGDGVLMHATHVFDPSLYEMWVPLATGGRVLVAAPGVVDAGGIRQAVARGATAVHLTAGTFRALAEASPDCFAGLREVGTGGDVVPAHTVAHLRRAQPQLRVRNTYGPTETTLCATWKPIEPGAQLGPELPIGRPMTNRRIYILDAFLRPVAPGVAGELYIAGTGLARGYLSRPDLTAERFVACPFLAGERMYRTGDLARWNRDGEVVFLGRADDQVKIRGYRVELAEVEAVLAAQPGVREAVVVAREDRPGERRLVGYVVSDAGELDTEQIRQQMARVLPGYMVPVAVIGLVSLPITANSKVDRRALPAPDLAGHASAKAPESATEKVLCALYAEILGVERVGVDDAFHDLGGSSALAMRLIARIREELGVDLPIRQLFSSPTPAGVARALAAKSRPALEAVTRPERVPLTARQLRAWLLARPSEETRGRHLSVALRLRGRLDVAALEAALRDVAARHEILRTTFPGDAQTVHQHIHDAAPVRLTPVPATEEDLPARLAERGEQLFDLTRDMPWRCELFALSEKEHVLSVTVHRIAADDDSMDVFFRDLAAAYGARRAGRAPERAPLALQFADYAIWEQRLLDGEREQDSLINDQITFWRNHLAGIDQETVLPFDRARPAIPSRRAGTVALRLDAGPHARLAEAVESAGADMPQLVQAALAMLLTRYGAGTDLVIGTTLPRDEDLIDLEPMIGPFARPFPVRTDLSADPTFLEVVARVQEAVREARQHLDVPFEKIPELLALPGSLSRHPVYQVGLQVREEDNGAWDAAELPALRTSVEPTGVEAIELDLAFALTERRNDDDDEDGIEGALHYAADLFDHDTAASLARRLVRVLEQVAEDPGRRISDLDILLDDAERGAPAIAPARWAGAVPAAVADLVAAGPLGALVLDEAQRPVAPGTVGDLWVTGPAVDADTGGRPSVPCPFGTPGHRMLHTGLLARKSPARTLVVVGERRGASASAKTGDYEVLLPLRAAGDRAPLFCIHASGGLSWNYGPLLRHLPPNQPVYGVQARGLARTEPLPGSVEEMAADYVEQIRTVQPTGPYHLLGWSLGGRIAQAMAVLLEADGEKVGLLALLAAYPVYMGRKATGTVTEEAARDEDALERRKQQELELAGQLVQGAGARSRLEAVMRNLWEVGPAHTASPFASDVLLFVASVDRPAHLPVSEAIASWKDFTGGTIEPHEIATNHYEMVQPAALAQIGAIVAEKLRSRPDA

## Tcp12 (Actinoplanes teichomyceticus)
  Km: 4 ± 0.1 µM
  kcat: 0.01867 ± 0.000167 s⁻¹

Reference: paper PMC6333238, “The biosynthetic implications of late-stage condensation domain selectivity during glycopeptide antibiotic biosynthesis” (Chemical Science, 2018)
